This note sets out measurements from patent publication US20100291106A1 (Novartis, published 2010).

Like-named read-outs stand apart in the source and are kept apart here.

Assay [1] has as its target T1, human complement C3b protein (human, UniProt P01024 23-667; P01024 749-1663). The experiment in a line: cell-based or functional assay.
In assay [2] the target is T2, cynomolgus complement C3b protein (cynomolgus monkey (Macaca fascicularis)). The experiment in a line: cell-based or functional assay.
Assay [3] deals with T3, human C3d (human, UniProt P01024 1002-1303).
T3 construct: domain: C3d
The experiment in a line: cross reactivity, ELISA on C3d, anti-His detection. On the procedure:
In order to determine whether the anti-C3b antibodies described herein can bind to complement pathway components iC3b and C3c, the following steps were performed: Directly add iC3b(complement Technologies A115), C3d (complement Technologies A117), or C3c (complement Technologies A116), at 2 μg/ml in Carbonate Buffer onto Coat Maxisorp plate Nunc (442404) at 100 μl per well. Seal plates and incubate at 4° C. overnight. Aspirate plates and wash 3 times with PBS/0.5% Tween 20. Block plates with Diluent (PBS, 4% BSA Fraction V (Fisher ICN16006980), 0.1% Tween 20 (Sigma P1379), 0.1% Triton X-100 (Sigma P234729)) and incubate for 2 h at room temperature or overnight at 4° C. Then wash plates once with PBS/0.5% Tween 20. Dilute Fabs at 100 nM and subsequent dilutions (or higher concentration if needed) in diluent and plate 100 μl per well. Incubate at room temperature for 1 h. Wash plates 3 times with PBS/0.5% Tween 20. Add 100 μl/well of anti-Histidine-HRP monoclonal detection antibody at 1:400 in diluent and incubate at room temperature for 1 h. Then wash 4 times with PBS/0.5% Tween 20. Add 100 μl of TMB substrate (Pierce 34028) and incubate at room temperature for up to 5 min. Add 50 μl of Stop solution (2N Sulfuric Acid) to each well and read plate at 450 nm and correct for plastic reading at 570 nm.
(In general: In an ELISA, binding on a coated surface is turned into a signal by an enzyme label.)

For assay [4], the target named is T1, human complement C3b protein. The experiment in a line: solution equilibrium titration (SET), ECL detection, Fab.
Assay [5] has as its target T2, cynomolgus complement C3b protein. Described as above.
The target of assay [6] is T1, human complement C3b protein. The experiment in a line: SPR (Biacore), C3b captured by anti-C3d antibody, Fab as analyte. (In general: SPR reads the build-up and loss of mass on a sensor chip optically.)
The target of assay [7] is T2, cynomolgus complement C3b protein. Described as above.
Assay [8] deals with T1, human complement C3b protein. The experiment in a line: bead proximity assay, C3b-acceptor beads; competitor biotinylated fH. As for the experimental part: (§1) For C3b-C3b and C3b-fP proximity, Fabs or IgGs respectively were pre-incubated with C3b-Acceptor beads (20 μg/ml) for 60 min at room temperature. C3b-Donor beads or fP-Donor beads (20 μg/ml) were then added, and the plate was incubated overnight at room temperature before reading. For C3b-fB and C3b-fH proximity, antibodies were pre-incubated with C3b-Acceptor beads (20 μg/ml) for 60 minutes at room temperature. Biotinylated fB(D24G/N260D) or fH were then added, and incubated for 60 minutes at room temperature. SA-Donor beads were then added (20 μg/ml) and the plate was incubated overnight at room temperature before reading. Plates were read on the BMG Pherastar (ex=680, em=520-620).

For assay [9] the target is unchanged. The experiment in a line: bead proximity assay, C3b-acceptor beads; competitor biotinylated fB(D24G/N260D). On the procedure:
as §1

The target of assay [10] is T4, human C5 (human, UniProt P01031 19-673; P01031 678-1676).
T4 construct: Captured by an anti-C5 antibody in the ELISA
The experiment in a line: cross reactivity, capture ELISA with anti-C5 capture antibody, anti-His detection.

Assay [11] has as its target T1, human complement C3b protein. The experiment in a line: cell-based or functional assay. This is another data set of the same source.
For assay [12] the target is unchanged. The experiment in a line: ELISA, C3b or C3 captured by anti-C3d antibody. On the procedure: The C3b antibodies were examined to determine whether they were selective for binding to C3b relative to the C3b precursor C3. Briefly, binding selectivity for C3b was determined by performing the following steps. Coat Maxisorp plate Nunc (442404) with anti-C3d rabbit monoclonal (abcam 17453) at 2 μg/ml in Carbonate Buffer at 100 μl/well. Seal plates and incubate at 4° C. overnight. Aspirate plates and wash 3 times with PBS/0.5% Tween 20. Block plates with Diluent (PBS, 4% BSA Fraction V (Fisher ICN16006980), 0.1% Tween 20 (Sigma P1379), 0.1% Triton X-100 (Sigma P234729)) and incubate for 2 h at room temperature or overnight at 4° C. Then wash plates once with PBS/0.5% Tween 20. Dilute purified C3b (complement technologies A114 lot 21) and C3 (complement technologies A113c) at 1 μg/ml in diluent and plate 100 μl per well. Incubate for 1 h at room temperature. Then wash 3 times with PBS/0.5% Tween 20.
Dilute Fabs at 100 nM and subsequent dilutions (or higher concentration) in diluent and plate 100 μl per well. Incubate at room temperature for 1 h. Wash plates 3 times with PBS/0.5% Tween 20. Add 100 μl/well of anti-Histidine-HRP monoclonal detection antibody at 1:400 in diluent and incubate at room temperature for 1 h. Then wash 4 times with PBS/0.5% Tween 20. Add 100 μl of TMB substrate (Pierce 34028) and incubate at room temperature for up to 5 min. Add 50 μl of Stop solution (2N Sulfuric Acid) to each well and read plate at 450 nm and correct for plastic reading at 570 nm.

In assay [13] the target is T3, human C3d. The experiment in a line: C3d binding ELISA, IgG titrated from about 0.006 to 100 nM.
Assay [14] addresses T1, human complement C3b protein. The experiment in a line: SPR (Biacore T100), C3b captured by anti-C3d antibody, IgG as analyte, 1:1 model.
In assay [15] the target is T2, cynomolgus complement C3b protein. The assay is described as above.
For assay [16], the target named is T1, human complement C3b protein. The experiment in a line: AlphaScreen bead proximity, C3b-Acceptor beads pre-incubated with antibody, then biotinylated fH and SA-Donor beads; blocked ligand: fH [C]. On the procedure:
(§2) In brief, purified C3b and fP were conjugated to unconjugated acceptor or donor beads (PerkinElmer) using AminoLink Reductant (Pierce) during a 48 h incubation at room temperature. Beads were quenched using Carboxymethoxylamine Hemihydrochloride (Aldrich), and purified by centrifugation at 13000 rpm and three washes with 0.1M TBST. Purified fB(D24G/N260D) and fH were biotinylated during a 30 min incubation with 20-fold molar excess of NHS-Chromogenic-biotin (Pierce) at room temperature, and purified using Zeba 0.5 ml desalting columns (Pierce).
as §1
In general terms: Alpha assays give light when donor and acceptor beads are brought close together.

Assay [17] has the same target. The experiment in a line: AlphaScreen bead proximity, C3b-Acceptor beads pre-incubated with antibody, then biotinylated fB(D24G/N260D) and SA-Donor beads; blocked ligand: fB [A]. On the procedure: as §2, §1
Assay [18] has the same target. The experiment in a line: AlphaScreen bead proximity, C3b-Acceptor beads pre-incubated with antibody, then C3b-Donor beads; inhibition of C3b-C3b dimer formation; unit from the axis [Antibody] nM [D]. As for the experimental part: as §2, §1
Assay [19] deals with T2, cynomolgus complement C3b protein. The experiment in a line: cell-based or functional assay. This is another data set of the same source.
Assay [20] has as its target T4, human C5. The experiment in a line: Direct ELISA at 2 ug/ml C5, 200 nM Fab.
Assay [21] has as its target T2, cynomolgus complement C3b protein. The experiment in a line: solution equilibrium titration (SET), ECL detection, Fab. This is another data set of the same source.
For assay [22] the target is unchanged. The experiment in a line: SPR (Biacore), C3b captured by anti-C3d antibody, Fab as analyte. This is another data set of the same source.

T3 sequence (P01024 1002-1303 limits assumed): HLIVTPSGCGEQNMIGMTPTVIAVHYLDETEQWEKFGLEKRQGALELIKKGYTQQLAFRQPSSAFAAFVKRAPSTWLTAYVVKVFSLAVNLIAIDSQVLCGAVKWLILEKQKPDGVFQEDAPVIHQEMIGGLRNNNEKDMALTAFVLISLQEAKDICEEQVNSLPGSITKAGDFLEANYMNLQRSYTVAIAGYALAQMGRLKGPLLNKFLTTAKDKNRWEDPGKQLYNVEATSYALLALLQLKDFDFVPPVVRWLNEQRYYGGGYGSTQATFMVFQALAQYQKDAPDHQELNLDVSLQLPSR
T1 sequence (P01024 23-667 P314L, chain 1 of 2): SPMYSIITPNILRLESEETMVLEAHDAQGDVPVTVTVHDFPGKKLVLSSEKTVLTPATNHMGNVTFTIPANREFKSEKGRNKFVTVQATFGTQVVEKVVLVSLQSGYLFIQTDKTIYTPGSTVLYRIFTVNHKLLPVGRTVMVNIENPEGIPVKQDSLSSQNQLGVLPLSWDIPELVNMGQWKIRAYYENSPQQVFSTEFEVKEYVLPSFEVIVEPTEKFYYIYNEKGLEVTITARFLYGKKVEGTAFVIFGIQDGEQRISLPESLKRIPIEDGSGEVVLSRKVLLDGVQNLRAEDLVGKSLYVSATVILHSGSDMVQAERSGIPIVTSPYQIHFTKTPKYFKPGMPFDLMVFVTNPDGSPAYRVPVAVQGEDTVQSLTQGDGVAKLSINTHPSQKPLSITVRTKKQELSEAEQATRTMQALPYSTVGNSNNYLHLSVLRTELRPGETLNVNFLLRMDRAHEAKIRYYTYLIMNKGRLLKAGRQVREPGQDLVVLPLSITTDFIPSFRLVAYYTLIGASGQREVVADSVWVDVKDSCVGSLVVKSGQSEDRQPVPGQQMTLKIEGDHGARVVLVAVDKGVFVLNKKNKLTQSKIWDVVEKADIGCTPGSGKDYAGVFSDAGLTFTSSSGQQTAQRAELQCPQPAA
T1 sequence (P01024 749-1663, chain 2 of 2): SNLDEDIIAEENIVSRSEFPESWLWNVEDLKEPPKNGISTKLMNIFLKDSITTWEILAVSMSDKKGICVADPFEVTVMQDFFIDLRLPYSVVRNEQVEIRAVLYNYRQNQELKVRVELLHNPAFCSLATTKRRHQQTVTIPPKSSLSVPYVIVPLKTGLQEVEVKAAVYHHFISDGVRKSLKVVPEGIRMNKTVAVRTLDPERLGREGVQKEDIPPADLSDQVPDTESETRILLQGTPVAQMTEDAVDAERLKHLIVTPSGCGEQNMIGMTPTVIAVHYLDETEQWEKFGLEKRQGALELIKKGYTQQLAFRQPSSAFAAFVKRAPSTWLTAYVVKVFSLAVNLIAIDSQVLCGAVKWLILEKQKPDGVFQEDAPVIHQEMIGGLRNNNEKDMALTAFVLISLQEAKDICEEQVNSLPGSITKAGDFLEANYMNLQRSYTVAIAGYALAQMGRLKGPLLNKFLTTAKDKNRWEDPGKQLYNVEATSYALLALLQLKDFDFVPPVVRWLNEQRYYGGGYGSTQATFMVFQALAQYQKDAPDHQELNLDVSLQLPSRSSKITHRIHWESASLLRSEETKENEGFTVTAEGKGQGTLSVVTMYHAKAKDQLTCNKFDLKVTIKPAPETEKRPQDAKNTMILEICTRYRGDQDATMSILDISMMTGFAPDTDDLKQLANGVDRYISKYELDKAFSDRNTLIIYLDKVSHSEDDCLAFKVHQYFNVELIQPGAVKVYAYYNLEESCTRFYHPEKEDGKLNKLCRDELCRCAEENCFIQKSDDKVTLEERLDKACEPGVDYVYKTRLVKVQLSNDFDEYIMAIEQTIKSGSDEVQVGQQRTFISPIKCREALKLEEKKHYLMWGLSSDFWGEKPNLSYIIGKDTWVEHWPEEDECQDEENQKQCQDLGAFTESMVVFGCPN
T4 sequence (P01031 19-673 limits assumed, chain 1 of 2): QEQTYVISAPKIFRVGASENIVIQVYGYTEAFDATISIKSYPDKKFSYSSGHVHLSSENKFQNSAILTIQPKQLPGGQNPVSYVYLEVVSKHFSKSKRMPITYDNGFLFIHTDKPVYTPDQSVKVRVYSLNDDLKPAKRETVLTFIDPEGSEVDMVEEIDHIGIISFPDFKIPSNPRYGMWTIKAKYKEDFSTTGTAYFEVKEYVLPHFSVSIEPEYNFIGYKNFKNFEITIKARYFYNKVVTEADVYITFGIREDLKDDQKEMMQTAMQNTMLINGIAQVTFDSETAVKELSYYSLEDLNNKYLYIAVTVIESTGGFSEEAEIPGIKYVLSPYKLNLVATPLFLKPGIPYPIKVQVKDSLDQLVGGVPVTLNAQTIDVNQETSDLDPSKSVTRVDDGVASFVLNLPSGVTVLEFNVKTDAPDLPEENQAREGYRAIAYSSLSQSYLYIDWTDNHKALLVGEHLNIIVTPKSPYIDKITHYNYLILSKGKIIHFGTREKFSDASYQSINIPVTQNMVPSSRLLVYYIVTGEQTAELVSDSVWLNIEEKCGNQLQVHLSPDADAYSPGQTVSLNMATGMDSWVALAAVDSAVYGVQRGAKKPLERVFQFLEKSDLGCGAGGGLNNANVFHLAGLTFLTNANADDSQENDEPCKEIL
T4 sequence (P01031 678-1676 limits assumed, chain 2 of 2): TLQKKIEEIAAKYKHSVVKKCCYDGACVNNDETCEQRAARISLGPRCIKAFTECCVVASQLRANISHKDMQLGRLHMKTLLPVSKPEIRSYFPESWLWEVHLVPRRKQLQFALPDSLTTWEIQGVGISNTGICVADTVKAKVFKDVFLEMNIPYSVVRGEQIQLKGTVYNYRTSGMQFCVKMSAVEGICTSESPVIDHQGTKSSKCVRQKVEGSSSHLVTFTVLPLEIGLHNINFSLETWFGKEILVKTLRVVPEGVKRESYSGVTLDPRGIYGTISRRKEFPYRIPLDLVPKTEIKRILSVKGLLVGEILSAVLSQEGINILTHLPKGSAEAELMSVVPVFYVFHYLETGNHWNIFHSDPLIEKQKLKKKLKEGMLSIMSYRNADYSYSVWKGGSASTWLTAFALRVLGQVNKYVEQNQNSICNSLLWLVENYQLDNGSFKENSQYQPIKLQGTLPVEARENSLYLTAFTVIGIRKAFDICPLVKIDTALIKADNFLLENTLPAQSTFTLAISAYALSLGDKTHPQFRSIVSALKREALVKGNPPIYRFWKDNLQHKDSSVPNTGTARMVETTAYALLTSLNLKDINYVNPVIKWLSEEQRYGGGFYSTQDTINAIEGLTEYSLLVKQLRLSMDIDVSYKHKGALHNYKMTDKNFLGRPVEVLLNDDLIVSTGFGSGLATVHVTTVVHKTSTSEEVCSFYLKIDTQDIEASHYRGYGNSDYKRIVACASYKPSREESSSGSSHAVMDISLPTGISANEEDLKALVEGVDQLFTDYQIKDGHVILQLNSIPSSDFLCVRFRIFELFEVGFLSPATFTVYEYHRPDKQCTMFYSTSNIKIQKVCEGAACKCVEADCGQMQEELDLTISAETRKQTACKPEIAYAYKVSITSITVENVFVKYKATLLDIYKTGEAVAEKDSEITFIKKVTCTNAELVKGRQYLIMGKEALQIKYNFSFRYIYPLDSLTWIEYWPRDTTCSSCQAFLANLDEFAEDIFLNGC

B1: MOR09124 Fab (Fab, V domains shown)
VH: QVQLVESGGGLVQPGGSLRLSCAASGFTFSSYWMTWVRQAPGKGLEWVSSIKIKPDGYAASVKGRFTISRDNSKNTLYLQMNSLRAEDTAVYYCARLFYQYFARMDYWGQGTLVTVSS
VL: DIQMTQSPSSLSASVGDRVTITCRASQDISNYLNWYQQKPGKAPKLLIYAASNLQSGVPSRFSGSGSGTDFTLTISSLQPEDFATYYCQQYDSYSPTFGQGTKVEIKR
notes: HCDR2-matured derivative of parental MOR08305
The term Kd denotes a measure of binding affinity in units of concentration. For orientation: IC50 means the midpoint of a concentration-inhibition curve. For the molecule B1, the “C3b Dep (nM), human serum, IC50” value in assay [1] was 16 nM. The “HA (nM), 10% human serum, IC50” value in assay [1] worked out at 44 nM. Also, in [1], the “MAC Dep (nM), human serum, IC50” value was 1 nM. For the same molecule, in [2], the “C3b Dep (nM), cyno serum, IC50” value was 73 nM. The “HA (nM), 10% cyno serum, IC50” value in assay [2] worked out at 101 nM. Besides, the “MAC Dep (nM), cyno serum, IC50” value in assay [2] came out at 5 nM. Also, the binding result with human C3d [3] and with human C5 [10] was “no binding” throughout. The Kd amounted to 0.001 nM in [4], 0.021 nM in assay [5], 0.007 nM in assay [6] and 0.033 nM in assay [7]. For the same molecule, the IC50 in [8] is 1 nM; in [9], 3 nM.

B2: MOR09612 IgG (antibody, V domains shown)
VH: EVQLVESGGGLVQPGGSLRLSCAASGFTFSSYWMTWVRQAPGKGLEWVSSIKIKPDGYAASVKGRFTISRDNSKNTLYLQMNSLRAEDTAVYYCARLFYQYFARMDYWGQGTLVTVSS
VL: DIQMTQSPSSLSASVGDRVTITCRASQDISNYLNWYQQKPGKAPKLLIYAASNLQSGVPSRFSGSGSGTDFTLTISSLQPEDFATYYCQQWDSFSPTFGQGTKVEIKR
notes: Germlined human IgG1 with leucines 234 and 235 changed to alanines, kappa; also called antibody 9612
As a reminder, the koff is a measure of how fast the partners let go of each other. As a reminder, the kon is the second-order rate constant of association. The term EC50 denotes the concentration at which the effect is half-maximal. For the molecule B2, in assay [11], the “MAC deposition on zymosan, IC50” value was at most 5 nM; the “hemolysis of rabbit red blood cells, 10% human or cynomolgus serum, IC50” value was at most 50 nM; the “inhibition of C3a and C5a generation during hemolysis, IC50” value is at most 50 nM. In addition, the “fold binding selectivity for C3b over C3” value in assay [12] is above 1000 fold. Also, the binding result with human C3d [13] is reported as “no binding (tested: 100 nM)”. In assay [14], the Kd is 0.00179 nM, the koff was 9.04e-06 s⁻¹ and the kon turned out to be 5.05e+06 M⁻¹ s⁻¹. In [15], the equilibrium dissociation constant (Kd) was found to be 0.0253 nM, the koff worked out at 8.67e-05 s⁻¹ and the kon worked out at 3.43e+06 M⁻¹ s⁻¹. In [16], the “IC50 (read off the curve)” value is around 0.04 nM. The “IC50 (read off the curve)” value in assay [17] was around 0.05 nM. The same molecule registered an EC50 in assay [18] of 340 nM.

B3: MOR9674 Fab format (Fab, V domains shown)
VH: EVQLVQSGAEVKKPGASVKVSCKASGYTFTSYSMHWVRQAPGQGLEWMGLINPYNGNTHYAQKFQGRVTMTRDTSISTAYMELSSLRSEDTAVYYCARMLRFDVWGQGTLVTVSS
VL: ESALTQPASVSGSPGQSITISCTGTSSDGGGYNYVSWYQQHPGKAPKLMIYGVSNRPSGVSNRFSGSKSGNTASLTISGLQAEDEADYYCQTYTRYSDSPVFGGGTKLTVLG
Regarding B3, in assay [19], the “C3b Dep (nM), cyno serum, IC50” value turned out to be 70 nM; the “HA (nM), 10% cyno serum, IC50” value is 78 nM; the “MAC Dep (nM), cyno serum, IC50” value was determined as 17 nM. Besides, in the assay with human C5 [20], the binding result is recorded as “no binding (tested: 200 nM)”. This molecule gave a Kd in assay [21] of 0.09 nM. Also, in assay [22], the Kd amounted to 0.119 nM.

B4: MOR09423 Fab (Fab, V domains shown)
VH: QVQLVQSGAEVKKPGASVKVSCKASGYTFTGYYINWVRQAPGQGLEWMGIISPNQGTTGYAQKFQGRVTMTRDTSISTAYMELSSLRSEDTAVYYCARGNYDHLDYWGQGTLVTVSS
VL: DIQMTQSPSSLSASVGDRVTITCRASQGISNYLNWYQQKPGKAPKLLIYDASTLQSGVPSRFSGSGSGTDFTLTISSLQPEDFATYYCQQDWHTLPVTFGQGTKVEIKR
notes: also called Fab 9423
With B4, the “C3b Dep (nM), human serum, IC50” value in assay [1] was found to be 14 nM. The “HA (nM), 10% human serum, IC50” value in [1] came out at 48 nM. For the same molecule, in [1], the “MAC Dep (nM), human serum, IC50” value was determined as 1 nM. In [2], the “C3b Dep (nM), cyno serum, IC50” value is 66 nM. Besides, the “HA (nM), 10% cyno serum, IC50” value in assay [2] came to 83 nM. Also, the “MAC Dep (nM), cyno serum, IC50” value in assay [2] was 4 nM. In addition, the binding result with human C3d [3] and in the assay with human C5 [10] was “no binding” in each case. Moreover, the Kd turned out to be 0.1 nM in assay [4], 0.34 nM in [5], 0.075 nM in [6] and 0.486 nM in assay [7]. The IC50 in [8] is 0.08 nM; in assay [9], 0.2 nM.
